The values below come from US20220119522A1.

The target in the assay is mouse TREM2 truncated stalk peptide (aa 149-163) (mouse) (UniProt Q99NH8). In words: ELISA on biotinylated peptide captured by streptavidin; A450 normalised to isotype control. (In general: ELISA stands for enzyme-linked immunosorbent assay.)

B1: CL0020214 (antibody, V domains shown)
VH: QVRLQQSGAELVRPGSSVKLSCKASGYAFSSYWMNWVKQRPGQGLEWIGQIYPGDGDTNYNGNFKGKATLTADNSSSTAYMQLSSLTSEDSAVYFCARRRNGDFGDYAMDYWGQGTSVTVSS
VL: QIVLTQSPAIMSASPGEKVTISCSASSSVSYMCWYQQKPGSSPKPWIYRTSTLASGVPARFSGSGSGTSYSLTISSMEAADAATYYCQHYHSYPFTFGAGTKLELK
Regarding B1, the fold over background (A450) stood at 1.3 fold.

B2: CL0020113 (antibody, V domains shown)
VH: QIQLVQSGPELKKPGESLKISCKASGYTFTDYAMQWVKQAPGKGLQYMGWINTQTGKPTYADDFKERFVFSLETSASTAYLKINNLKNDDMATYLCARSYGGEYNWIAYWGQGTLVTVSS
VL: DIVMTQTPSSQAVSAGEKVTMNCKSSQSLLYNENKKNYLAWYQQKPGQSPKLLIYWASTRESGVPDRFIGSGSGTDFTLTISSVQAEDLAVYYCQQSYNFPPTFGGGTKLELK
In the case of B2, the fold over background (A450) was found to be 1.3 fold.

B3: CL0020162 (antibody, V domains shown)
VH: QIQLVQSGPELKKPGESLKISCKASGYTFTDYAMQWVKQAPEKGLQYMGWINTQTGKPTYADDFKERFVFSLETSATTAYLQINNLKNEDMATYFCVRSYNNYENWFAYWGQGTLVTVSS
VL: DIVMTQSPSSLAVSAGETVTINCKSSQSLLYSGNQKNYLAWYQQKPGQSPKVLIYWASTRQFGVPDRFIGSGSGTDFTLTISSVQAEDLAIYYCQQYYNSPITFGSGTKLEIK
As to B3, the fold over background (A450) was 1.4 fold.

B4: CL0020103 (antibody, V domains shown)
VH: EVQLQQSGPELVKPGASVKISCKTSGYTFTEYTMHWVKESHGKSLEWIGGINPNKGGSSYNQKFKGKATLTVDKSSSTAYMDLRRLTSEDSAVYYCARGGYEYYALDYWGQGTSVTVSS
VL: DIVMSQSPSSLTVSVGERVTMSCKSSQSLLYSRNQKNYLAWYQQKPGQSPKLLIYWASTRESGVPDRFTGSGSGTDFSLTISSVKAEDLAVYYCQQYYSYPPTFGGGTKLEIK
For the molecule B4, the fold over background (A450) was 1.8 fold.

B5: CL0020120 (antibody, V domains shown)
VH: EVQLQQSGPELVRTGASVKISCRASSYSFTDNYIHWVKQTHGRSLEWIGYISGYTGATSYNQKFKGKATFTVDTSSSTAYMQFNSLTSEDSAVYYCARSTMIAPYGMDYWGQGTSVTVSS
VL: DIVMTQSHKFMSTSVGDRVNITCKASQDVVTAVAWYQQKPGQSPKLLIYWASTRHTGVPDRFTGSGSGTDFTLTISNVQSEDLADYFCQQYSRYPLTFGAGTKLELK
Turning to B5, the fold over background (A450) worked out at 1.2 fold.

B6: CL0020206 (antibody, V domains shown)
VH: EVQLQQSGPVLVKPGASVKMSCKASGYTFTDYYMNWVKQSHGKSLEWIGIINPYSGGISYNQKFKGKAILTVDKSSSTAYMELNSLTSEASAVYYCTRRNWDGRYAMDYWGQGTSVTVSS
VL: DIVMTQSHKFMSTSVGDRVSITYKASQDVGSAVAWYQQKPGQSPKLLIYWTSTRHTGVPDRFTGSGSGTDFTLTISNVQSEDLADYFCQQYSSYPFTFGGGTKLEIK
Turning to B6, the fold over background (A450) turned out to be 1.6 fold.

B7: CL0020127 (antibody, V domains shown)
VH: EVQLQQSGPVLVKPGASVKMSCKASGYKFTDYYMNWVKQSHGKSLEWIGTINPYSGGISYNQKFKGKATLTVDKSSSTAYMELNSLTSEASAVYYCTRRNWDGRYAMDYWGQGTSVTVSS
VL: DIVMTQSHKFMSTSVGDRVSITCKASQDVSTAVAWYQQKPGQSPKLLIYWASTRHTGVPDRFTGSGSGTDFTLTISNVQSEDLAEYFCQQYSSYPFTFGGGTKLEIK
As to B7, the fold over background (A450) turned out to be 1.2 fold.

B8: CL0020195 (antibody, V domains shown)
VH: EVQLVESGGGLVQPGRSMMLSCSASGFTFSNYHMAWVRQAPTTGLEWVASITTGSGNTYYRHSVKGRFTISRDNAKSTLYLQMDSLRSEDTASYYCARRWYGGYEGYYFDYWGQGVMVTVSS
VL: DIQMTQSPSLLSASVGDRVTLSCKAGQNVNNYLAWYQQKLGEAPKLLIYNANILQTGFPSRFSGTGSGTDFTLTISSLQPEDVATYFCQQYNSWTTFGGGTKLELK
As to B8, the fold over background (A450) came out at 1.2 fold.

B9: CL0020186 (antibody, V domains shown)
VH: EVQLVESGGGLVQPGRSLKLSCPASGFTFSYYGMAWVRQAPTKGLEWVASISTGGGNTYYRDSVKGRFTISRDNAKNTLYLQMDSLRSEDTATYYCARGDIGTAYWFTYWGQGTLVTVSS
VL: NIQLTQSPSLLSASVGDRVTLSCKGSQNINNYLAWYQQKLGEAPKLLIYKTNSLLTGIPSRFSGSGSGTDYTLTISSLHSEDLATYYCYQYNNGWTFGGGTKLELK
Turning to B9, the fold over background (A450) turned out to be 1.3 fold.

B10: CL0020123 (antibody, V domains shown)
VH: EVQLQQSGAELVRSGASVKLSCTASGFSIEDFYIHWVKQRPEQGLEWIGWIDPENGDSKYAPKFQGKATMTADTSSNTAYLHLSSLTSEDTAVYYCHADHGNYGSTMDYWGQGTSVTVSS
VL: DIQMNQSPSSLSASLGDTVTITCHASQHINVWLSWYQQKPGDHPKLLIYKASNLHTGVPSRFSGSGSGTGFTLTISSLQPEDIATYYCQQGQTYPRTFGGGTKLEIK
As for B10, the fold over background (A450) is 0.9 fold.

B11: CL0020109 (antibody, V domains shown)
VH: EVQLQQSGPVLVKPGASLKMSCRASGYTFTDYYVHWVKQSHGKSLEWIGLINPYTGTTSYNQRFKGKATLTVDKSSSTAYMEVNSLTSEDSAVYYCARSRVYYGSSLFAFWGQGTLVTVSA
VL: DIVMTQSPSSLSVSAGEKVTMSCKSSQSLLNSGNQKNYLAWYQQKPGQPPKLLIYGASTRESGVPDRFTGSGSGTDFTLTISSVQAEDLAVYYCQNDHSYPYTFGGGTKLEIK
Take B11: the fold over background (A450) was found to be 1.7 fold.

B12: CL0020205 (antibody, V domains shown)
VH: EVQLQQSGPVLVKPGASVKMSCKASGYTFTDYYVHWVKQSHGKSLEWIGLINPYTGTTSYNQRFRVKATLTVDKSSSTAYMEVNSLTSEDSAVYYCARSRVYYGSSLFAFWGQGTLVTVSA
VL: DIVMTQSPSSLSVSAGEKVTMSCKSSQSLLNSGNQKNYLAWYQQKPGQPPKLLIYGASTRESGVPDRFTGSGSGTDFTLTISSVQAEDLAVYYCQNDHSYPYTFGGGTKLEIK
As for B12, the fold over background (A450) came out at 1.1 fold.

B13: CL0020210 (antibody, V domains shown)
VH: QIQLVQSGPELRKPGETVKISCKASGYTFTTYGMSWVKQAPGKGLKWMGWINTYSGLPRHSDDFKGRFAFSLETSASTAYLQINNLKNEDTATYFCAREVYYGSRKTAWFAYWGQGTLVTVSA
VL: DLVMSQSPSSLAVSVGERITMTCKSSQSLLYSNDQKNYLAWYQQIPGQSPKLLLYWASTRESGVPDRFTGSGSGTDFTLTISSVKAEDLAVYFCQQYYNYPPTFGAGTKLELK
B13: the fold over background (A450) turned out to be 1.6 fold.

B14: CL0020215 (antibody, V domains shown)
VH: QVQLQQPGAELVKPGASVKMSCKASGYTFTNYWIMWVKQRPGQGLEWIGDIYPSSGSTNYNEKFKNRATLTVDTSSNTAYMQLSSLTSEDSAVYFCSREGYGISAWGQGTTLTVSS
VL: QIVLTQSPAIMSASPGEKVTITCSASSSVSYMHWFQQKPGTSPKLWIYSTSNLASGVPARFSGSGSGTSCSLTISRMEAEDAATYYCQQRSSFPLTFGAGTKLELK
Take B14: the fold over background (A450) is 1.2 fold.

B15: CL0020111 (antibody, V domains shown)
VH: QVQLQQPGADLVKPGASVKMSCKASGYTFTNYWITWVQQRPGQGLEWIGDIYPGSGNTNYNEKFRSKATLTVDTSSNTAYMQLSSLTSEDSAVYYCSREGYGISAWGQGTTLTVSS
VL: QIVLTQSPAFMSASPGEKVTITCRASSSVSYMHWFQQKPGTSPKLWIFSTSNLASGVPARFSGSGSGTSHSLTISRMEAEDAATYYCQQRSGYPLTFGAGTKLELK
For the molecule B15, the fold over background (A450) came out at 1.5 fold.

B16: CL0020164 (antibody, V domains shown)
VH: EVKLLESGGGLVQPGGSLRLSCAASGFTFTDFYMSWIRQPPGKAPEWLGVIRNKANGFTTEYNTSVKGRFTISRDYTQNILHLQTNTLRAEDTAIYYCARLTYGFDYWGQGVMVTVSS
VL: DIVMTQGALPNPVPSGESASITCQSSKSLLHSNGKTYLNWYLQRPGQSPQFLIYWMSTRASGVSDRFSGSGSGTDFTLKISSVEAEDVGVYYCQQFLELPFTFGSGTKLEIK
As for B16, the fold over background (A450) turned out to be 1.5 fold.

B17: CL0020173 (antibody, V domains shown)
VH: EVKLLESGGGLVQPGSSMRLSCAASGFTFTDFYMNWIRQPAGRAPEWLGFFRNIVDGYTTEYNPSVKGRFTISRDNTQNMLYLQMNTLRAEDTATYYCARSGYSSYIYGGTFAYWGQGTLVTVSS
VL: ETVMTQSPTSMSTSIGERVTLNCKASQSVGIHVDWYQQTPGQSPKLLIYGASNRHTGVPDRFTGSGFGRDFTLTISNVEAEDLAVYYCLQYGSIPWTFGGGTKLELK
Turning to B17, the fold over background (A450) was determined as 1.2 fold.

B18: CL0020313 (antibody, V domains shown)
VH: QVQLKQSGPGLLQPSQSLSITCTVSGFSLTSYGVHWVRQSPGKGLEWLGVIWSGGITLYNAAFMSRLSITKDNSKSQVFFKMNSLQADDTAIYYCAKVGYGSSSDYWGQGTTLTVSS
VL: DVLMTQSPLSLPVSLGDQASFSCRSSQSIVHSNGNTYLEWYLQKPGQSPKLLIYKVSNRFSGVPDRFSGSGSGTDFTLKISRVEAEDLGVYYCFQGSHVPFTFGSGTKLEIK
For B18, the fold over background (A450) came to 1.1 fold.

B19: CL0020201 (antibody, V domains shown)
VH: EVQLQQSGPVLVKPGASVRMSCKPSGYTFTDYYMNWVKQSHGKSLEWIGSINPYTGGSSYNQNFRGKATLTVDKSSSTAYMELNSLTSEDSAVYYCARGSYYSNLGFAYWGQGTLVTVSA
VL: DVQLTQSPSFLTASPGETITINCRASKSISKYLAWYQEKPGKTNKLLISSGSTLQSGIPSRFSGSGSGTDFTLTISSLEPEDFAMYYCQQYSEYPFTFGSGTKLEIK
For B19, the fold over background (A450) was 1.8 fold.

B20: CL0020139 (antibody, V domains shown)
VH: EVQLQQSGPELVKPGASVKMSCKAPGYSFTSYLMNWVKQKPGQGLEWIGYINPYSAGSNYNEKFKDKATLTSDKSSSTAYMELRSLTSEDSAVYFCARSSYRYGFDYWGQGTTLTVSS
VL: DIQMTQSSSSFSVSLGDRVTITCKASEDIYNRLAWYQQKPGNAPRLLISGATSLETGVPSRFSGSGSGKDYTLSITSLQTEDVATYSCQQYWSTPWTFGGGTKLEIK
As for B20, the fold over background (A450) is 1.6 fold.

B21: CL0020161 (antibody, V domains shown)
VH: EVQLVESGGGLVQPGRSMKLSCAALGFTFSNYYMAWVRQAPRKGLEWVASISTGGDNTYYRDSVKGRFTISRDNAKSTLYMQMDSLRSEDTATYYCVRSFIVGTTGYYFDYWGQGVMVTVSS
VL: DIVLTQSPALAVSLGQRATISCKTNQNVDYYGNNYMHWYQQTPGQQPKLLIYFASNLASGIPARFSGRGSGTDFTLTIDPVEADDTATYYCQQSRNLPTFGGGTKLELK
On to B21, for which the fold over background (A450) stood at 1.1 fold.
